Data taken from US20200283478A1 (Genentech, published 2020).
Like-named read-outs stand apart in the source and are kept apart here. Bridge positions count the residues as written; N and C are the ends. Square brackets hold non-standard residues; d marks the D form. Ends that are not written are not given here. Trp(6-F) = N[C@@H](Cc1c[nH]c2cc(F)ccc12)C(=O)O; hArg = N=C(N)NCCCC[C@H](N)C(=O)O

B1: SEQ ID NO 349 (peptide)
peptide: TAFTSWEEYLDWVGSGCCSYGYEKCCNG
B2: SEQ ID NO 336 (peptide)
peptide: TAFTSWEEYLDWVGSGSYRGAWSVFGGSTD
B3: SEQ ID NO 363 (peptide)
peptide: TAFTSWEEYLDWVGSGQVTSLPQA
B4: SEQ ID NO 360 (peptide)
peptide: TAFTSWEEYLDWVGSGDCLRYRVGSSCS
B5: Compound 241 (peptide)
peptide: Ac-TVFTS[Trp(6-F)]EEYLDWVGSGCRLPWNLQRIGLPC-NH2
modifications: disulfide 17-30 (inferred)
B6: SEQ ID NO 351 (peptide)
peptide: TAFTSWEEYLDWVGSGSPCRVGYTPC
B7: SEQ ID NO 343 (peptide)
peptide: TAFTSWEEYLDWVGSGRGEVYDKGGVIVHL
B8: Compound 236 (peptide)
peptide: WNLV[hArg]IG-NH2
modifications: N-terminus assumed
SMILES: CC[C@H](C)[C@H](NC(=O)[C@H](CCCCNC(=N)N)NC(=O)[C@@H](NC(=O)[C@H](CC(C)C)NC(=O)[C@H](CC(N)=O)NC(=O)[C@@H](N)Cc1c[nH]c2ccccc12)C(C)C)C(=O)NCC(N)=O
notes: also called WNLV(homoR)IG-NH2
B9: SEQ ID NO 354 (peptide)
peptide: TAFTSWEEYLDWVGSGSSTWHFVGGVRV
B10: SEQ ID NO 344 (peptide)
peptide: TAFTSWEEYLDWVGSGGREMRSVIQM
B11: SEQ ID NO 333 (peptide)
peptide: TAFTSWEEYLDWVGSGDCNLWGDDGKYRLCF
B12: SEQ ID NO 341 (peptide)
peptide: TAFTSWEEYLDWVGSGQTTYLRVSSS
B13: phage-displayed Pep2-8 (on p8) (peptide)
peptide: TVFTSWEEYLDWV
notes: also called phage displaying Pep2-8
B14: SEQ ID NO 355 (peptide)
peptide: TAFTSWEEYLDWVGSGCYPLCRVG
B15: SEQ ID NO 364 (peptide)
peptide: TAFTSWEEYLDWVGSGCYPLCRVL
B16: SEQ ID NO 342 (peptide)
peptide: TAFTSWEEYLDWVGSGQISYLRNA
modifications: not fully specified; also: Q (1) D-amino acid, place in chain unclear (phage-displayed)
B17: SEQ ID NO 345 (peptide)
peptide: TAFTSWEEYLDWVGSGGDCGYHYMCSMT
B18: SEQ ID NO 340 (peptide)
peptide: TAFTSWEEYLDWVGSGPRTYLRGLVD
B19: SEQ ID NO 359 (peptide)
peptide: TAFTSWEEYLDWVGSGGDCYPHCRLV
B20: SEQ ID NO 357 (peptide)
peptide: TAFTSWEEYLDWVGSGKMTHMKAD
B21: SEQ ID NO 361 (peptide)
peptide: TAFTSWEEYLDWVGSGPTSGLTPS
B22: SEQ ID NO 348 (peptide)
peptide: TAFTSWEEYLDWVGSGVCSDHYIGGKEVRC
B23: SEQ ID NO 352 (peptide)
peptide: TAFTSWEEYLDWVGSGNCARLYSHQRDYSQVC
B24: SEQ ID NO 347 (peptide)
peptide: TAFTSWEEYLDWVGSGNMCYLRGKMDCNIV
B25: SEQ ID NO 335 (peptide)
peptide: TAFTSWEEYLDWVGSGGVLGVGGMWIA
B26: SEQ ID NO 365 (peptide)
peptide: TAFTSWEEYLDWVGSGRCGLAWCVVLVDQ
B27: SEQ ID NO 362 (peptide)
peptide: TAFTSWEEYLDWVGSGRCESKGWANTCVSE
B28: SEQ ID NO 358 (peptide)
peptide: TAFTSWEEYLDWVGSGGCGYRYMCDMINGL
B29: SEQ ID NO 338 (peptide)
peptide: TAFTSWEEYLDWVGSGQCYPWCRL
B30: SEQ ID NO 350 (peptide)
peptide: TAFTSWEEYLDWVGSGSETGLGTYYG
B31: Compound 239 (peptide)
peptide: WNLV[hArg]IGQR
modifications: also: further groups not given here
notes: Structure printed only as a drawing
B32: Compound 240 (peptide)
peptide: WNLV[hArg]IGNR
modifications: also: further groups not given here
notes: as for B31
B33: SEQ ID NO 346 (peptide)
peptide: TAFTSWEEYLDWVGSGQELPNHRRLS
B34: SEQ ID NO 334 (peptide)
peptide: TAFTSWEEYLDWVGSGCVKVGLSWIGDCNS
B35: SEQ ID NO 339 (peptide)
peptide: TAFTSWEEYLDWVGSGCWTYLRGGCSVT
B36: SEQ ID NO 353 (peptide)
peptide: TAFTSWEEYLDWVGSGCLDRSGGCYTREGYLS
B37: SEQ ID NO 356 (peptide)
peptide: TAFTSWEEYLDWVGSGKCDSHYIRGVVACH
B38: SEQ ID NO 337 (peptide)
peptide: TAFTSWEEYLDWVGSGCMEAWQCSLA

Tests used:
[1] = biological target: T1, proprotein convertase subtilisin/kexin type 9 (PCSK9) (human, UniProt Q8NBP7 31-692); experiment: phage spot ELISA
T1 construct: His-tagged full-length PCSK9 in TR-FRET and SPR, biotinylated in phage ELISA; secreted protein is autoprocessed (prodomain plus catalytic/CRD chain starting at S153); also called rec.PCSK9; His-PCSK9
T1 sequence (Q8NBP7 other isoform, or with tags, fused parts or gaps limits assumed): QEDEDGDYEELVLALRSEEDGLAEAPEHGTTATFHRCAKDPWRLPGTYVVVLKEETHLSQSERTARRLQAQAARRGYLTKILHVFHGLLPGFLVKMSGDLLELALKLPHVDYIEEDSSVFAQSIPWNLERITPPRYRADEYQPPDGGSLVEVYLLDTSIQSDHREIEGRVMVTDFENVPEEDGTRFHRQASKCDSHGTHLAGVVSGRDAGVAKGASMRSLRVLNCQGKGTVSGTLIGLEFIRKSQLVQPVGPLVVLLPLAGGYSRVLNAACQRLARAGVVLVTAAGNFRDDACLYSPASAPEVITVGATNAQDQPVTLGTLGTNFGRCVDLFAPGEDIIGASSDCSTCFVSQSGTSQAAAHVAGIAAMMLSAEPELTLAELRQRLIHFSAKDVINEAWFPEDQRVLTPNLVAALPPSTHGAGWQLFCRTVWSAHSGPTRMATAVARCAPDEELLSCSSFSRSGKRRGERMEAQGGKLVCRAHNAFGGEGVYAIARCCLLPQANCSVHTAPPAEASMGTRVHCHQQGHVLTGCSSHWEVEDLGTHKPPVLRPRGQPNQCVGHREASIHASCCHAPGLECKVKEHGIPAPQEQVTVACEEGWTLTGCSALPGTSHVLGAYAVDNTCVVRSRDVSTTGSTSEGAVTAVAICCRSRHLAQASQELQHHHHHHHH

[2] = biological target: T2, PCSK9Δhelix (human, Chemically biotinylated in the phage ELISAs; the site is not given.); experiment: phage spot ELISA
T2 construct: construct M1-Q692 with engineered TEV site, cleaved by TEV; also called His-PCSK9Δhelix; open groove PCSK9Δhelix
T2 sequence (prodomain, as listed by the source mutant limits assumed, chain 1 of 2): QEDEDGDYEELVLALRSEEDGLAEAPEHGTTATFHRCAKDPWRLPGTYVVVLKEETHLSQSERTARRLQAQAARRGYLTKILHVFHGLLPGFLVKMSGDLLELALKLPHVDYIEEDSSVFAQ
T2 sequence (chain, as listed by the source mutant limits assumed, chain 2 of 2): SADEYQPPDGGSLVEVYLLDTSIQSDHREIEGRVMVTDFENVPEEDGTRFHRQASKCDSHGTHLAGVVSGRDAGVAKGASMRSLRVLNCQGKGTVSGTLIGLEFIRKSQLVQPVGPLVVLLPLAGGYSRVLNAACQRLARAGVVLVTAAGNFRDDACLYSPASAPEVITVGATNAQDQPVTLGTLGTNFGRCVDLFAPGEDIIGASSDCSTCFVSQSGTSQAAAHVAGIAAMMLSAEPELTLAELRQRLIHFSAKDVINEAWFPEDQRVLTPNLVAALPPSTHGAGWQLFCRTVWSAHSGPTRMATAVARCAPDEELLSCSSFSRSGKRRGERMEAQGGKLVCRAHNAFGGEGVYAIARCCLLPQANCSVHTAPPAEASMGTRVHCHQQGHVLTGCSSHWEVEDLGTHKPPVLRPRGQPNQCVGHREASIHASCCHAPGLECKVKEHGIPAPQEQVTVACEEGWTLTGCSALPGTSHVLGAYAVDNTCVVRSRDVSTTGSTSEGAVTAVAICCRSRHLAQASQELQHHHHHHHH

[3] = biological target: T3, His-tagged, full-length PCSK9 (human, UniProt Q8NBP7 31-692); experiment: TR-FRET competition; His-PCSK9, competitor EGF(A)-Fc
T3 construct: The secreted protein is autocleaved into a prodomain and a catalytic/Cys-rich chain that starts at S153; also called His-PCSK9
T3 sequence (Q8NBP7 other isoform, or with tags, fused parts or gaps limits assumed): as the sequence (Q8NBP7 other isoform, or with tags, fused parts or gaps limits assumed) above
Method: (§1) Signal generation in the PCSK9 binding assays was dependent upon the binding interaction to bring into close proximity the His-tag on the PCSK9 and the Fc-tag on the ligand. Anti-His-APC was bound to the His-tag, and anti-Fc-europium was bound to the Fc-tag.
(§2) Compounds were solubilized and dilutions were prepared in DMSO. […] The plate was centrifuged to mix the well contents and allowed to incubate for 30 min. […] The normalized TR-FRET ratios were plotted as a function of the compound concentrations, and the IC₅₀ values were determined using a 4-parameter logistic regression.

[4] = biological target: T4, His-tagged PCSK9Δhelix (human, UniProt Q8NBP7 31-152; Q8NBP7 168-692); experiment: TR-FRET competition; His-PCSK9Δhelix, competitor Ab20
T4 construct: Construct M1-Q692 with engineered TEV site, cut by TEV protease; new N-terminus of the catalytic domain is S-A168; also called His-PCSK9Δhelix
T4 sequence (Q8NBP7 31-152, stated change not applied, chain 1 of 2): as the sequence (prodomain, as listed by the source mutant limits assumed, chain 1 of 2) above
T4 sequence (Q8NBP7 other isoform, or with tags, fused parts or gaps mutant, chain 2 of 2): as the sequence (chain, as listed by the source mutant limits assumed, chain 2 of 2) above
Method: as §1, §2

[5] = biological target: T1, proprotein convertase subtilisin/kexin …; experiment: phage spot ELISA; remark: listed apart in the source
From the text: (§3) The binding signal of the same phage particle to NeutrAvidin was considered as non-specific binding (“noise”).

[6] = biological target: T2, PCSK9Δhelix; experiment: phage spot ELISA; remark: listed apart in the source
From the text: as §3

Binder | ELISA [1] | s/n ratio [1] | ELISA [2] | s/n ratio [2] | IC50 [3] [nM] | IC50 [4] [nM] | ELISA [5] | s/n ratio [5] | ELISA [6] | s/n ratio [6]
B1 | 2.87 | 28.6 | 2.88 | 27.2 | – | – | – | – | – | –
B2 | 2.79 | 19.5 | 2.69 | 17.2 | – | – | – | – | – | –
B3 | 2.46 | 27.9 | 0.11 | 1.21 | – | – | – | – | – | –
B4 | 3.04 | 29.6 | 2.87 | 28.9 | – | – | – | – | – | –
B5 | – | – | – | – | 1600 | 100 | – | – | – | –
B6 | 2.92 | 27.7 | 2.87 | 25.4 | – | – | – | – | – | –
B7 | 2.84 | 30.5 | 2.83 | 30.1 | – | – | – | – | – | –
B8 | – | – | – | – | ≥ 50000 | 22000 | – | – | – | –
B9 | 2.71 | 24.4 | 2.88 | 29.7 | – | – | – | – | – | –
B10 | 2.71 | 28.2 | 2.74 | 26.6 | – | – | – | – | – | –
B11 | 2.72 | 23.6 | 2.81 | 23 | – | – | – | – | – | –
B12 | 2.59 | 27 | 2.29 | 24.4 | – | – | – | – | – | –
B13 | – | – | – | – | – | – | 2.98 | 30 | 2.1 | 21.8
B14 | 3.06 | 16.2 | 3.05 | 29.6 | – | – | – | – | – | –
B15 | 2.86 | 31.1 | 3.09 | 31.9 | – | – | – | – | – | –
B16 | 2.7 | 22.9 | 2.31 | 22.6 | – | – | – | – | – | –
B17 | 2.75 | 25 | 2.63 | 25.5 | – | – | – | – | – | –
B18 | 2.77 | 25.6 | 2.73 | 25.1 | – | – | – | – | – | –
B19 | 2.86 | 28.9 | 2.85 | 28.5 | – | – | – | – | – | –

Binder | ELISA [1] | s/n ratio [1] | ELISA [2] | s/n ratio [2] | IC50 [3] [nM] | IC50 [4] [nM] | ELISA [5] | s/n ratio [5] | ELISA [6] | s/n ratio [6]
B20 | 2.31 | 22.4 | 0.106 | 1.07 | – | – | – | – | – | –
B21 | 2.66 | 27.5 | 0.127 | 1.3 | – | – | – | – | – | –
B22 | 2.99 | 27.4 | 2.94 | 15.4 | – | – | – | – | – | –
B23 | 2.66 | 24.4 | 2.64 | 26.1 | – | – | – | – | – | –
B24 | 2.91 | 30.9 | 2.83 | 28.6 | – | – | – | – | – | –
B25 | 1.45 | 12.8 | 2.61 | 24.4 | – | – | – | – | – | –
B26 | 2.62 | 20.8 | 2.8 | 28.5 | – | – | – | – | – | –
B27 | 2.98 | 20.7 | 2.56 | 15.8 | – | – | – | – | – | –
B28 | 2.92 | 32.8 | 3.01 | 30.4 | – | – | – | – | – | –
B29 | 2.71 | 25.1 | 2.65 | 29.2 | – | – | – | – | – | –
B30 | 2.81 | 28.1 | 2.78 | 25.5 | – | – | – | – | – | –
B31 | – | – | – | – | 32000 | 1200 | – | – | – | –
B32 | – | – | – | – | 31000 | 920 | – | – | – | –
B33 | 2.3 | 19.1 | 2.43 | 14.3 | – | – | – | – | – | –
B34 | 2.66 | 23.9 | 2.74 | 25.1 | – | – | – | – | – | –
B35 | 3.07 | 22.1 | 3.05 | 20.2 | – | – | – | – | – | –
B36 | 3.06 | 29 | 3.05 | 30.4 | – | – | – | – | – | –
B37 | 2.95 | 30.2 | 3.03 | 30.9 | – | – | – | – | – | –
B38 | 2.73 | 24.6 | – | – | – | – | – | – | – | –
